# Assay results reported in patent US20260265385A1 (ANAPTYSBIO, published 2026).
# Positions count from the first letter of the chain named.
# B1: APE14946 (antibody, V domains shown)
# VH: QVQLVQSGAEVKKPGASVKVSCKASGYTFSRYWIEWVRQAPGQGLEWMGEILPGSGSINHNEKFQGRVTFTADTSTSTVYMELSSLRSEDTAVYFCTRHYGSFDYWGQGTTVTVSS
# VL: DIQMTQSPSSLSASVGDRVTITCKASQNVGTDVAWYQQKPGKAPKSLIYSASYRYSGVPSRFSGSGSGTDFTLTISSLQPEDFATYFCHQYSSYPFTFGQGTKLEIKR
# notes: M6-p1625 series
# B2: APE15299 (antibody, V domains shown)
# VH: B1 VH with T28S, R31K, Y32H, E35Q, F70M, A72R, F95Y
# VL: B1 VL with S92E
# notes: M6-p1625 series
# B3: APE15092 (antibody, V domains shown)
# VH: B1 VH with E35Q, F70M, A72R, F95Y
# VL: B1 VL
# notes: M6-p1625 series
# B4: APE15292 (antibody, V domains shown)
# VH: B1 VH with S30I, R31T, F70M, A72R, F95Y
# VL: B1 VL with S92E
# notes: M6-p1625 series
# B5: APE15290 (antibody, V domains shown)
# VH: B1 VH with T28P, S30T, R31S, E35Q, F70M, A72R, F95Y
# VL: B1 VL with S92E
# notes: M6-p1625 series
# B6: APE15278 (antibody, V domains shown)
# VH: B1 VH with L52S, S55V, G56D, S57T, F70M, A72R, F95Y
# VL: B1 VL with S92E
# notes: M6-p1625 series
# B7: APE15279 (antibody, V domains shown)
# VH: B1 VH with S30T, R31S, Y32Q, F70M, A72R, F95Y
# VL: B1 VL with S92E
# notes: M6-p1625 series
# B8: APE15296 (antibody, V domains shown)
# VH: B1 VH with T28R, R31T, Y32Q, F70M, A72R, F95Y
# VL: B1 VL with S92E
# notes: M6-p1625 series
# B9: APE15297 (antibody, V domains shown)
# VH: B1 VH with T28S, S30I, R31I, Y32H, E35Q, F70M, A72R, F95Y
# VL: B1 VL with S92E
# notes: M6-p1625 series
# B10: APE15293 (antibody, V domains shown)
# VH: B1 VH with R31S, Y32H, E35Q, F70M, A72R, F95Y
# VL: B1 VL with S92E
# notes: M6-p1625 series
# B11: APE15086 (antibody, V domains shown)
# VH: B1 VH with F70M, A72R, F95Y
# VL: B1 VL with H89Q
# notes: M6-p1625 series
# B12: APE15089 (antibody, V domains shown)
# VH: B1 VH with F70M, A72R, F95Y
# VL: B1 VL with G30D
# notes: M6-p1625 series
# B13: APE15371 (antibody, V domains shown)
# VH: B1 VH with V18I, E35Q, F70M, A72R, F95Y
# VL: B1 VL with S92E
# notes: M6-p1625 series
# B14: APE15085 (antibody, V domains shown)
# VH: B1 VH with F70M, A72R, F95Y
# VL: B1 VL with S92E
# notes: M6-p1625 series
# B15: APE14951 (antibody, V domains shown)
# VH: B1 VH with F70M, A72R, F95Y
# VL: B1 VL with Y36F, S56N, F87Y
# notes: M6-p1625 series
# B16: APE14949 (antibody, V domains shown)
# VH: B1 VH with F95Y
# VL: B1 VL with Y36F, S56N, F87Y
# notes: M6-p1625 series
# B17: APE15288 (antibody, V domains shown)
# VH: B1 VH with T28S, S30R, Y32H, E35Q, F70M, A72R, F95Y
# VL: B1 VL with S92E
# notes: M6-p1625 series
# B18: APE14948 (antibody, V domains shown)
# VH: B1 VH with F95Y
# VL: B1 VL
# notes: M6-p1625 series
# B19: APE15298 (antibody, V domains shown)
# VH: B1 VH with T28I, E35Q, G56V, F70M, A72R, F95Y
# VL: B1 VL with S92E
# notes: M6-p1625 series
# B20: APE15090 (antibody, V domains shown)
# VH: B1 VH with N59D, F70M, A72R, F95Y
# VL: B1 VL
# notes: M6-p1625 series
# B21: APE15368 (antibody, V domains shown)
# VH: B1 VH with A24V, S30T, Y32F, E35Q, F70M, A72R, F95Y
# VL: B1 VL with S92E
# notes: M6-p1625 series
# B22: APE15284 (antibody, V domains shown)
# VH: B1 VH with S30G, E35Q, F70M, A72R, F95Y
# VL: B1 VL with S92E
# notes: M6-p1625 series
# B23: APE15277 (antibody, V domains shown)
# VH: B1 VH with S30I, R31S, E35Q, F70M, A72R, F95Y
# VL: B1 VL with S92E
# notes: M6-p1625 series
# B24: APE14950 (antibody, V domains shown)
# VH: B1 VH with F70M, A72R, F95Y
# VL: B1 VL
# notes: M6-p1625 series
# B25: APE15285 (antibody, V domains shown)
# VH: B1 VH with T28I, S30A, R31S, Y32N, E35Q, F70M, A72R, F95Y
# VL: B1 VL with S92E
# notes: M6-p1625 series
# B26: APE15088 (antibody, V domains shown)
# VH: B1 VH with F70M, A72R, F95Y
# VL: B1 VL with D32N
# notes: M6-p1625 series
# B27: APE15300 (antibody, V domains shown)
# VH: B1 VH with T28A, S30V, R31D, Y32N, E35Q, F70M, A72R, F95Y
# VL: B1 VL with S92E
# notes: M6-p1625 series
# B28: APE15369 (antibody, V domains shown)
# VH: B1 VH with V18I, S30T, Y32F, E35Q, F70M, A72R, F95Y
# VL: B1 VL with S92E
# notes: M6-p1625 series
# B29: APE15087 (antibody, V domains shown)
# VH: B1 VH with F70M, A72R, F95Y
# VL: B1 VL with D32E
# notes: M6-p1625 series
# B30: APE15280 (antibody, V domains shown)
# VH: B1 VH with Y32Q, F70M, A72R, F95Y
# VL: B1 VL with S92E
# notes: M6-p1625 series
# B31: APE15286 (antibody, V domains shown)
# VH: B1 VH with T28L, E35Q, F70M, A72R, F95Y
# VL: B1 VL with S92E
# notes: M6-p1625 series
# B32: APE15091 (antibody, V domains shown)
# VH: B1 VH with E35N, F70M, A72R, F95Y
# VL: B1 VL
# notes: M6-p1625 series
# B33: APE15093 (antibody, V domains shown)
# VH: B1 VH with S30T, F70M, A72R, F95Y
# VL: B1 VL
# notes: M6-p1625 series
# B34: APE14947 (antibody, V domains shown)
# VH: B1 VH
# VL: B1 VL with Y36F, S56N, F87Y
# notes: M6-p1625 series
# B35: APE15287 (antibody, V domains shown)
# VH: B1 VH with T28K, E35Q, F70M, A72R, F95Y
# VL: B1 VL with S92E
# notes: M6-p1625 series
# B36: APE15283 (antibody, V domains shown)
# VH: B1 VH with T28K, R31S, E35Q, F70M, A72R, F95Y
# VL: B1 VL with S92E
# notes: M6-p1625 series
# B37: APE15291 (antibody, V domains shown)
# VH: B1 VH with S30A, Y32H, E35G, F70M, A72R, F95Y
# VL: B1 VL with S92E
# notes: M6-p1625 series
# B38: APE15370 (antibody, V domains shown)
# VH: B1 VH with A24V, E35Q, F70M, A72R, F95Y
# VL: B1 VL with S92E
# notes: M6-p1625 series
# How the values were obtained:
# [1] = molecular target: T1, recombinant cynomolgus IL-2Rβ (extracellular domain, Ala1-Thr215) (cynomolgus, UniProt Q38J85 27-240); assay: SPR, antibody captured on Protein A chip
# T1 construct: extracellular domain; Analyte in SPR; also called cynomolgus LL-2Rβ; Cyno IL-2RB
# T1 sequence (looked up): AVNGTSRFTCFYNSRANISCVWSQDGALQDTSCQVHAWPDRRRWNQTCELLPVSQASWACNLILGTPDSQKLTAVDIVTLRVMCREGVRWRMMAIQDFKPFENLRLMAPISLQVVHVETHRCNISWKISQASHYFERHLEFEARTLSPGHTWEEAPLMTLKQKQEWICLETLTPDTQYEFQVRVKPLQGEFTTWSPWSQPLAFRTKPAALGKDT
# Method: (§1) Surface plasmon resonance (SPR) was used to determine the binding affinities. The M6-1625 and M10-1275 antibodies were captured onto a Cytiva Protein A Chip for 60 seconds at 0.5 μg/mL for 60 seconds. The antibodies were exposed to recombinant human LL-2Rβ or cynomolgus LL-2Rβ (corresponding to residues Ala1-Thr215 of the extracellular domains excluding the signal peptide) at typical concentrations ranging from 0.4 nM to 11 nM with typical 300 second associations and 1200 second dissociations using a BiacoreS200 instrument. Sensorgrams were fit globally using a 1:1 binding model in the Biacore T200 Evaluation Software to calculate on- and off-rates and KD values.
# [2] = molecular target: T2, recombinant human IL-2Rβ (extracellular domain, Ala1-Thr215) (human, UniProt P14784 27-240); assay: SPR, antibody captured on Protein A chip
# T2 construct: extracellular domain; Analyte in SPR; Ala1-Thr215 is counted on the mature protein; also called human LL-2Rβ; Human IL-2RB
# T2 sequence (looked up): T1 sequence (looked up) with R7Q, T66A, A74T, M83L, M92V, K127E, M158L
# Method: as §1
Binder,Kd [1] [nM],Kd [2] [nM]
B1,0.255,0.357
B2,0.39,0.348
B3,0.126,–
B4,0.437,0.376
B5,0.305,0.261
B6,0.488,0.334
B7,0.533,0.522
B8,0.825,0.851
B9,0.153,0.157
B10,0.359,0.351
B11,0.25,0.305
B12,9.39,1.04
B13,0.0821,0.0917
B14,0.154,0.158
B15,0.584,0.804
B16,1,1.5
B17,0.199,0.172
B18,0.266,0.358
B19,0.132,0.0981

Binder,Kd [1] [nM],Kd [2] [nM]
B20,0.44,0.657
B21,0.0783,0.0867
B22,0.0705,0.0566
B23,0.244,0.229
B24,0.192,0.252
B25,0.327,0.31
B26,16.7,16.4
B27,1.16,1.41
B28,0.0634,0.0674
B29,3.56,4.31
B30,0.202,0.161
B31,0.104,0.0873
B32,0.345,–
B33,0.189,–
B34,0.977,1.46
B35,0.186,0.169
B36,0.318,0.312
B37,2.68,1.98
B38,0.0982,0.11
